We go through six molecules from patent US20190316133, “Anti-Fibrinogen Aptamers and Uses Thereof” (Laboratoire Francais du Fractionnement et des …, published 2019).

Data set [1] has as its target T1, fibrinogen (transgenic human, from milk of transgenic cows) (Homo sapiens, UniProt P02671-2;P02675;P02679 P02671-2:20-644,P02675:31-491,P02679:27-453). Briefly: SPR; high affinity stated. As to conditions: tags: none; 97% purity; chain copies: 2; label: 5' biotin-triethylene glycol. As for the experimental part:
(§1) The selected aptamer was synthetized with Biotin and a triethylene glycol spacer at the 5′ end of the oligonucleotide. A 1 μM solution of the aptamer was prepared using the SELEX selection buffer. The aptamer solution was heated to 90° C. for 5 min, incubated on ice for 5 min and equilibrated to room temperature for 10 min. The preparation was injected on a streptavidin coated sensor chip SA of Biacore T200 instrument (GE Healthcare) at a flow rate of 10 μl/min for 7 min. Then, different concentrations of the target were injected to the immobilised aptamer at 30 μl/min for 1 minute. After dissociation for 1-2 min a wash step was performed by injecting a suitable wash buffer at 30 μl/min for 1 min. For elution, a suitable elution buffer was injected at 30 μl/min for 1-2 min. Finally the sensor chip was regenerated by injection of 50 mM NaOH at 30 μl/min for 30 sec. During the course of the experiment the response signal was recorded in a sensorgram.
In general terms: In SPR one partner is held on a chip, and binding of the other changes the refractive index at the surface.

Data set [2] deals with T1, fibrinogen (transgenic human, from milk …). The data set can be described thus: SPR; high affinity; pH-dependent. As to conditions: tags: none; 97% purity; chain copies: 2. The procedure: as §1
The core sequences of aptamers SEQ ID NO:1 and SEQ ID NO:58 (namely the minimal sequence binding to fibrinogen) were determined. The aptamer of SEQ ID NO:66 corresponds to the core sequence of aptamer of SEQ ID NO:1. The aptamer of SEQ ID NO:67 is the core sequence of aptamer of SEQ ID NO:58. FIGS. 3A-3D show the binding profile obtained for the core sequences of aptamers of SEQ ID NO:1 and NO:58 by SPR. […]

The target is the same in data set [3]. The data set can be described thus: SPR; dose-dependent 125-1000 nM at pH 6.3; not eluted by 0.5 M NaCl; released at pH 7.4. To be noted: tags: none; 97% purity; chain copies: 2; label: 5' biotin-triethylene glycol. As for the experimental part:
Each solution of transgenic fibrinogen was injected at pH 6.3 whereby a complex was formed in a dose-dependent manner as evidenced by the increase of the signals depending on the concentration of fibrinogen. […] Fibrinogen was then released from the complex by an elution buffer at pH 7.40. The solid support was then regenerated by injecting a solution of NaOH at 50 mM. X-axis: time in s. Y-axis: SPR response in arbitrary scale
as §1

The target is the same in data set [4]. Briefly: SPR; dose-dependent 125-1000 nM at pH 6.3; not eluted by 1 M NaCl; released at pH 7.4 with 2 M MgCl2. To be noted: tags: none; 97% purity; chain copies: 2; label: 5' biotin-triethylene glycol. The procedure: Each solution of transgenic fibrinogen was injected at pH 6.3 whereby a complex was formed in a dose-dependent manner as evidenced by the increase of the signals depending on the concentration of fibrinogen. […] Fibrinogen was then released from the complex by an elution buffer at pH 7.40 and containing MgCl₂ at 2M. The solid support was then regenerated by injecting a solution of NaOH at 50 mM. X-axis: time in s. Y-axis: SPR response in arbitrary scale.
as §1, with “Finally the sensor chip was regenerated by injection of 50 mM NaOH at 30 μl/min for 30 sec.” left out

T1 sequence (P02671 other isoform, or with tags, fused parts or gaps, chain 1 of 3): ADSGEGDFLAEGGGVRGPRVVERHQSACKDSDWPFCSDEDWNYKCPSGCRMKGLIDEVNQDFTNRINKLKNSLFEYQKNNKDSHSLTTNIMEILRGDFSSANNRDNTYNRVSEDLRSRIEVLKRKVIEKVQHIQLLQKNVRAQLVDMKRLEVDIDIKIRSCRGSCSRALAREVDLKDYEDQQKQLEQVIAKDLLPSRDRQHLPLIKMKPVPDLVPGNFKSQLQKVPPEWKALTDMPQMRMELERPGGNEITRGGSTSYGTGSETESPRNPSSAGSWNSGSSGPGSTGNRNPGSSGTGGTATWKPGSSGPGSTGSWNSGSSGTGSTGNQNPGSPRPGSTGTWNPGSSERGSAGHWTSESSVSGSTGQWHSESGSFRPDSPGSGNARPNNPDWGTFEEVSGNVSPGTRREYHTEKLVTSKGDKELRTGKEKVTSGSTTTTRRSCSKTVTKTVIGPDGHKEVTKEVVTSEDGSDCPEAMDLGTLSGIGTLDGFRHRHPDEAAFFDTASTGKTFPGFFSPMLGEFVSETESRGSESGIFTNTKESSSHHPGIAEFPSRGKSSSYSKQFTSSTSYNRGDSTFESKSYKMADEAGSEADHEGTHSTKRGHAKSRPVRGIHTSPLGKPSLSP
T1 sequence (P02675 31-491, chain 2 of 3): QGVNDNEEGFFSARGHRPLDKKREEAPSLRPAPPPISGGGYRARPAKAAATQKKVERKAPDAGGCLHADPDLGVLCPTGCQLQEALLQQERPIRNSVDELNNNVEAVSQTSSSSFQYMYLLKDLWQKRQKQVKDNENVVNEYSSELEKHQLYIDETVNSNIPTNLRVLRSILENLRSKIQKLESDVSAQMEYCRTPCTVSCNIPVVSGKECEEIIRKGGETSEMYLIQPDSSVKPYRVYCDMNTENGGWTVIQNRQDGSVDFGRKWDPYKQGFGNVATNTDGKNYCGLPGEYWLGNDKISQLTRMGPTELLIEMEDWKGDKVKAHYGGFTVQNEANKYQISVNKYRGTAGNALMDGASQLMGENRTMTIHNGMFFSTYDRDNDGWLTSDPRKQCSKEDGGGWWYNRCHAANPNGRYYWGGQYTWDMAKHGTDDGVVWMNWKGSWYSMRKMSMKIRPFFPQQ
T1 sequence (P02679 27-453, chain 3 of 3): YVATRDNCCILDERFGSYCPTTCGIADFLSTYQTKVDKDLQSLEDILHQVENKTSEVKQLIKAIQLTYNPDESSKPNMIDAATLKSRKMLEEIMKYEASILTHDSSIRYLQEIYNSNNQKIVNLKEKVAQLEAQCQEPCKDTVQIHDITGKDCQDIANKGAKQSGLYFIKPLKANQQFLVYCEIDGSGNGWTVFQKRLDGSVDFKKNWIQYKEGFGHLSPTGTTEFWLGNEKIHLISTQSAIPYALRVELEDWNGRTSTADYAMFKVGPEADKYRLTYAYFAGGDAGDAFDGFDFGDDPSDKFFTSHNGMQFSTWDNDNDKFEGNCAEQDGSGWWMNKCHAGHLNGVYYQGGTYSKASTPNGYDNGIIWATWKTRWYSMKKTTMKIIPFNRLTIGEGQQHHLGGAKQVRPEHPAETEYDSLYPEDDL

B1: SEQ ID NO:60 aptamer (ssDNA)
DNA: GGGTCAATGCCAGGTCTCTGCGTACTTATCTCGATGTGGTTGGTAGGGATAGGTGTATATCGGCTCGCAAGCAGTC
Turning to B1, the binding result in data set [1] was “binds”.

B2: SEQ ID NO:1 aptamer (ssDNA)
DNA: GGGTCAATGCCAGGTCTCGGACCTGGAATCCGCCACCCGCATTAGAACCAGGGTTGACATCGGCTCGCAAGCAGTC
Turning to B2, the binding result in data set [2] is listed as “binds”.

B3: SEQ ID NO:58 aptamer (ssDNA)
DNA: GGGTCAATGCCAGGTCTCAACTTTCGCGTGTGGTTGGTAGGGCTAGGTGTATACGCATATCGGCTCGCAAGCAGTC
For B3, the binding result in data set [2] was “binds”.

B4: SEQ ID NO:65 aptamer (ssDNA)
DNA: GGGTCAATGCCAGGTCTCGAGCCGGTGTTGTGTTATGTTGGTAGGGAAGGTGTATAATATCGGCTCGCAAGCAGTC
Take B4: in data set [1], the binding result is “binds”.

B5: A5-1.9 (core of SEQ ID NO:1) (ssDNA)
DNA: GGGTCAATGCCAGGTCTCGGACCTGGAATCCGCCACCCGCATTAGAACCAGGGTTGAC
B5: in data set [3], the binding result is recorded as “binds”.
Consider CGCGTGTGGTTGGTAGGGCTAGGTGTATACGCAT (ssDNA) [A5-2.9 (core of SEQ ID NO:58)], for which the binding result in data set [4] was “binds”.
